# Assay results from patent US20190276499A1, “Protein VII Fragments and Methods of Use Thereof for the Treatment of Inflammatory Disorders” (priority 2016, published 2019).
# Entries after “also recorded” stand apart in the source; their conditions may differ.
# B1: protein VII: mature protein VII of human adenovirus type 5 (SEQ ID NO:1), expressed in cells, mostly with C-terminal HA tag (protein)
# chain: AKKRSDQHPVRVRGHYRAPWGAHKRGRTGRTTVDDAIDAVVEEARNYTPTPPPVSTVDAAIQTVVRGARRYAKMKRRRRRVARRHRRRPGTAAQRAAAALLNRARRTGRRAAMRAARRLAAGIVTVPPRSRRRAAAAAAAAISAMTQGRRGNVYWVRDSVSGLRVPVRTRPPRN
# modifications: C-terminal HA tag; Human adenovirus 5
# Legend:
# LPS induced lung injury = assay: Murine model of LPS induced lung injury, BAL fluid analysis; type: in vivo, mouse; details: 24 hours after LPS exposure, versus mice expressing GFP
# Experimental: All mice were housed in SPF conditions. All studies in mice were carried out in accordance with the recommendations in the Guide for the Care and Use of Laboratory Animals of the National Institutes of Health. C57BL/6J male mice aged 8-10 weeks were used for experiments. Mice were sedated with ketamine and xylazine. Once sedated, mice underwent orotrachial intubation, as described (Das et al. (2013) J. Vis. Exp., (73):e50318), with a 20G angiocatheter from BD (Franklin Lakes, N.J.). Mice subsequently received 5e10 GC of recombinant adenovirus expressing VII-GFP or GFP purified as described above. Four days after infection, mice were exposed to aerosolized LPS, 3 mg/mL for 30 minutes as described (Jeyaseelan et al. (2004) Infect. Immun., 72:7247-7256). One day after LPS exposure, BAL, and lung tissue were harvested as detailed (Nick et al. (2000) J. Immunol., 164:2151-2159) and examined for HMGB1 content (ELISA, Chondrex 6010) and neutrophil count (hematoxylin and eosin stain kit EMD 65044/93). Immunostaining was carried out using standard methods. A minimum of four biological replicates were used for each condition studied. Mice were assigned a random number and color at the start of the experiment and were randomized. Technicians carrying out the experiments were blinded to the identity of the samples. Tissue samples were assigned a random study number such that the technician performing the analysis was blinded. Unblinding for the purpose of data analysis occurred only after all data had been collected.
# nucleosomes = assay: Nucleosome in vitro binding and MNase digestion assays
# Experimental: Gel shift and MNase digestion assays were carried out as described (Falk et al. (2015) Science 348:699-703; Hasson et al. (2013) Nat. Struct. Mol. Biol., 20:687-695; Sekulic et al. (2010) Nature 467:347-351). Briefly, nucleosomes were reconstituted by incubating purified recombinant histones with ‘601’ DNA of either 195 or 147 bp over a series of dialysis. Recombinant protein VII-His was then combined with nucleosomes at various molar ratios, incubated at room temperature for 15 minutes, and analyzed by native gel electrophoresis. Complexes were also digested with MNase (Affymetrix) by addition of 1 unit per μg of DNA for 147 bp nucleosome experiments and 0.1 unit per μg of DNA for 195 bp nucleosome experiments, incubated at 22° C. for varying amounts of time followed by the addition of EGTA and guanidine thiocyanate to stop the reaction. The DNA fragments were then purified using a MinElute PCR purification kit (Qiagen) and analyzed on an Agilent 2100 Bioanalyzer as described (Falk et al. (2015) Science 348:699-703).
molecule,measurement,setting,value
B1,HMGB1 in BAL fluid,LPS induced lung injury,significantly less HMGB1
same,Neutrophils in BAL fluid,LPS induced lung injury,fewer neutrophils
same,Protection from MNase digestion,nucleosomes; 147 bp nucleosome core particle,completely blocks digestion; also recorded: protects against MNase digestion
same,Nucleosome mobility on native gel electrophoresis,nucleosomes; 195 bp nucleosomes,changed nucleosome mobility
same,Point at which MNase digestion of nucleosomal DNA pauses,nucleosomes; 195 bp nucleosomes,165 bp
